Test results as given in patent US20180258407.

What was measured:
[1] = system: HDAC4 expressed in Saccharomyces cerevisiae from a constitutively active promoter (pNOP)
[2] = system: flag tagged HDAC4 (overexpressed in neonatal rat cardiomyocytes)

Row | Substance | cleavage of HDAC4 in Saccharomyces cerevisiae, westernblot analysis [1] | HDAC4 cleavage, immunoblot [2]
1 | ABHD5 expressed in Saccharomyces cerevisiae from a Galactose inducible promoter (pGAL) | By overexpression either together or with backbone vector in Saccharomyces cerevisiae we found cleavage of HDAC4, confirmed by westernblot analysis. | –
2 | gfp tagged abhd5 (adenoviral overexpression in neonatal rat ventricular myocytes) | – | Overexpressed flag tagged HDAC4 was cleaved whenever gfp tagged abhd5 was coexpressed.
